Assay results reported in US20190041402A1 (GOVERNING COUNCIL OF THE UNIVERSITY OF TORONTO, published 2019).

T1: extracellular domain (ECD) of human αKlotho, amino acids E34-S981 with C-terminal 6-His tag (R&D Systems … (human, UniProt Q9UEF7 34-981))
T1 construct: range 34-981; also called αKlotho (aa34-981); target antigen
T1 sequence: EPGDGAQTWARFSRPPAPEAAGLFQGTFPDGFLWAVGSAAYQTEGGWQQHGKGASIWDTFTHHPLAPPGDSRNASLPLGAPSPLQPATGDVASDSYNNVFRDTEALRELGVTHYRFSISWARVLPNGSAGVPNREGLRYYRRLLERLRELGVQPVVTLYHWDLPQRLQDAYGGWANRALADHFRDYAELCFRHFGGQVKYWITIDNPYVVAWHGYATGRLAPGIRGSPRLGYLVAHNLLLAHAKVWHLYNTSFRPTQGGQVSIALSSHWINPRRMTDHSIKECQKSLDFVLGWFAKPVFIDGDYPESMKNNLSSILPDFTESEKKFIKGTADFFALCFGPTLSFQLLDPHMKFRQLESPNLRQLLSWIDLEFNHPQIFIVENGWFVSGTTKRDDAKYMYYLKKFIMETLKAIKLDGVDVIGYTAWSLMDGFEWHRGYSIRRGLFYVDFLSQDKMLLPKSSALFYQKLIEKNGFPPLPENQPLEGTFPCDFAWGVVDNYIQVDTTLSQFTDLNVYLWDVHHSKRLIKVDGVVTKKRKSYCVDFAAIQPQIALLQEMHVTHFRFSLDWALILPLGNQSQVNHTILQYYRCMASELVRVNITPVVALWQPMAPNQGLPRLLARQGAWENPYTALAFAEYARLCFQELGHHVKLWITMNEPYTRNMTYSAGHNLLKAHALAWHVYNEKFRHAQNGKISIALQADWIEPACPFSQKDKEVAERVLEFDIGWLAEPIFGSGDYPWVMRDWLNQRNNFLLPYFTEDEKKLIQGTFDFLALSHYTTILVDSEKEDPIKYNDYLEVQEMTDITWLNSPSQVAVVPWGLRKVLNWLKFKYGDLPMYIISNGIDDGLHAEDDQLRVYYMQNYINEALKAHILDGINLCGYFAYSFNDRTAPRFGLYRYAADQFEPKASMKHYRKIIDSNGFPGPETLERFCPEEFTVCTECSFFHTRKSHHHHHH


Key:
[1] = biological target: T1, extracellular domain (ECD) of human …; assay: SPR, Fab captured by anti-H+L IgG, αKlotho injected at 50 to 6.25 ug/ml, Langmuir fit [continued]
Experimental: (§1) Affinity estimates for each of the antibodies were determined by surface plasmon resonance (SPR). Fabs were immobilized using an anti-H+L antibody and serial dilutions of αKlotho were injected.

bovine serum albumin = biological target: T2, bovine serum albumin (bovine, UniProt P02769 25-607); assay: Fab ELISA, purified Fab 5 ug/ml on immobilised BSA, anti-Flag-HRP, A450
T2 construct: also called BSA
T2 sequence (P02769 25-607 limits assumed): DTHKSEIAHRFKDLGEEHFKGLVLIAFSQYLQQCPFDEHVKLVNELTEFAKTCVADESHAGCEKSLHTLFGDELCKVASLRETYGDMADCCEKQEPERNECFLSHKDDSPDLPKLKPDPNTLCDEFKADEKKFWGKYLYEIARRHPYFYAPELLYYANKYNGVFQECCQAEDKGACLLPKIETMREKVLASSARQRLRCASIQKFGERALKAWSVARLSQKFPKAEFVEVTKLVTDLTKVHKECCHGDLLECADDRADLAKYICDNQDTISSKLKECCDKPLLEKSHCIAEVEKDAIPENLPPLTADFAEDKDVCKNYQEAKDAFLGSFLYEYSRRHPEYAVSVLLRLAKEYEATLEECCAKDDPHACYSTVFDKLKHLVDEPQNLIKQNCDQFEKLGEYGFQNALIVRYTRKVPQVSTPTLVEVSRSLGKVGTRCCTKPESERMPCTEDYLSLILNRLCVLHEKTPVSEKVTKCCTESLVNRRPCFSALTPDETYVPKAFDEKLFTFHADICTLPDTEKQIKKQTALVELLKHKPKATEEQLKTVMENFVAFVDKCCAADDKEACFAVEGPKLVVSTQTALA
Experimental: FIG. 10 is a graph showing absorbance values of Fab ELISAs with additional αKlotho antibodies. Purified Fabs [5 ug/ml] were incubated with immobilized αKlotho (1 ug/ml) or bovine serum albumin (BSA), as a negative control. After washing off unbound Fab, bound Fab were detected using an HRP-conjugated anti-Flag anti-body (Fabs have Flag-tag on the light chain). Colorimetric HRP reagents allow for absorbance readings at 450 nm.

[2] = biological target: T1, extracellular domain (ECD) of human …; assay: SPR, Fab captured by anti-H+L antibody, αKlotho injected
Experimental: as §1

[3] = biological target: T1, extracellular domain (ECD) of human …; assay: SPR, Fab captured by anti-H+L IgG, αKlotho injected at 50 to 6.25 ug/ml, Langmuir fit
Experimental: as §1

| Binder | Kd [1] [nM] | koff [1] [s⁻¹] | kon [1] [M⁻¹ s⁻¹] | binding result (bovine serum albumin) | Kd [2] [nM] | Kd [3] [nM] | koff [3] [s⁻¹] | kon [3] [M⁻¹ s⁻¹] |
| --- | --- | --- | --- | --- | --- | --- | --- | --- |
| anti-αKlotho Fab clone 4833 (Fab, V domains shown, Fab (also as Fab-phage); FLAG tag on light chain; also called sb202) VH: EVQLVESGGGLVQPGGSLRLSCAASGFNLSSYYMHWVRQAPGKGLEWVASIYPSYSSTYYADSVKGRFTISADTSKNTAYLQMNSLRAEDTAVYYCARSSYSVYFWWYVSAMDYWGQGTLVTVSS VL: DIQMTQSPSSLSASVGDRVTITCRASQSVSSAVAWYQQKPGKAPKLLIYSASSLYSGVPSRFSGSRSGTDFTLTISSLQPEDFATYYCQQSSHGHYPITFGQGTKVEIKR | 0.703 | 0.000519 | 739000 | no binding (tested: 5 ug/ml) | 1.4 | – | – | – |
| anti-αKlotho Fab clone 4805 (Fab, V domains shown, Fab (also as Fab-phage); FLAG tag on light chain; also called sb174) VH: EVQLVESGGGLVQPGGSLRLSCAASGFNLSYYSMHWVRQAPGKGLEWVASISSYYGSTYYADSVKGRFTISADTSKNTAYLQMNSLRAEDTAVYYCARGGGYYSGPYAGFDYWGQGTLVTVSS VL: DIQMTQSPSSLSASVGDRVTITCRASQSVSSAVAWYQQKPGKAPKLLIYSASSLYSGVPSRFSGSRSGTDFTLTISSLQPEDFATYYCQQSSGWYHFLFTFGQGTKVEIKR | – | – | – | – | 0.24 | 0.117 | 0.000183 | 1.57e+06 |
| anti-αKlotho Fab clone 4830 (Fab, V domains shown, Fab (also as Fab-phage); FLAG tag on light chain; also called sb199) VH: EVQLVESGGGLVQPGGSLRLSCAASGFNIYYSSIHWVRQAPGKGLEWVASIYPYYSYTYYADSVKGRFTISADTSKNTAYLQMNSLRAEDTAVYYCARSVASALDYWGQGTLVTVSS VL: DIQMTQSPSSLSASVGDRVTITCRASQSVSSAVAWYQQKPGKAPKLLIYSASSLYSGVPSRFSGSRSGTDFTLTISSLQPEDFATYYCQQYSWYWYSPITFGQGTKVEIKR | 1.53 | 0.00113 | 741000 | no binding (tested: 5 ug/ml) | 2.9 | – | – | – |
| anti-αKlotho Fab clone 4804 (Fab, V domains shown, Fab (also as Fab-phage); FLAG tag on light chain C-terminus; also called sb173) VH: EVQLVESGGGLVQPGGSLRLSCAASGFNLYSYSIHWVRQAPGKGLEWVAYISSSSGSTYYADSVKGRFTISADTSKNTAYLQMNSLRAEDTAVYYCARGWGGGYWFYPVYGIDYWGQGTLVTVSS VL: DIQMTQSPSSLSASVGDRVTITCRASQSVSSAVAWYQQKPGKAPKLLIYSASSLYSGVPSRFSGSRSGTDFTLTISSLQPEDFATYYCQQSSYSLITFGQGTKVEIKR | – | – | – | – | 0.77 | 0.516 | 0.000738 | 1.43e+06 |
| anti-αKlotho Fab clone 4832 (Fab, V domains shown, Fab (also as Fab-phage); FLAG tag on light chain; also called sb201) VH: EVQLVESGGGLVQPGGSLRLSCAASGFNFSSSSIHWVRQAPGKGLEWVAYISSSYGYTSYADSVKGRFTISADTSKNTAYLQMNSLRAEDTAVYYCARASGWFSHFYPAAVSGMDYWGQGTLVTVSS VL: DIQMTQSPSSLSASVGDRVTITCRASQSVSSAVAWYQQKPGKAPKLLIYSASSLYSGVPSRFSGSRSGTDFTLTISSLQPEDFATYYCQQSSYSLITFGQGTKVEIKR | 0.123 | 4.61e-05 | 374000 | no binding (tested: 5 ug/ml) | 0.515 | – | – | – |
| anti-αKlotho Fab clone 4823 (Fab, V domains shown, Fab (also as Fab-phage); FLAG tag on light chain; also called sb192) VH: EVQLVESGGGLVQPGGSLRLSCAASGFNFSSSSIHWVRQAPGKGLEWVAYIYSSYGYTYYADSVKGRFTISADTSKNTAYLQMNSLRAEDTAVYYCARAAHYGYYVHSGLDYWGQGTLVTVSS VL: DIQMTQSPSSLSASVGDRVTITCRASQSVSSAVAWYQQKPGKAPKLLIYSASSLYSGVPSRFSGSRSGTDFTLTISSLQPEDFATYYCQQSSYSLITFGQGTKVEIKR | 0.991 | 0.000744 | 750000 | no binding (tested: 5 ug/ml) | 1.6 | – | – | – |
| anti-αKlotho Fab clone 4807 (Fab, V domains shown, Fab (also as Fab-phage); FLAG tag on light chain; also called sb176) VH: EVQLVESGGGLVQPGGSLRLSCAASGFNLSSSYMHWVRQAPGKGLEWVASIYPSYGSTSYADSVKGRFTISADTSKNTAYLQMNSLRAEDTAVYYCARGVVPSYYYWFWPYGAIDYWGQGTLVTVSS VL: DIQMTQSPSSLSASVGDRVTITCRASQSVSSAVAWYQQKPGKAPKLLIYSASSLYSGVPSRFSGSRSGTDFTLTISSLQPEDFATYYCQQSSYSLITFGQGTKVEIKR | – | – | – | – | 6.1 | 3.5 | 0.00244 | 698000 |
| anti-αKlotho Fab clone 4828 (Fab, V domains shown, Fab (also as Fab-phage); FLAG tag on light chain; also called sb197) VH: EVQLVESGGGLVQPGGSLRLSCAASGFNFSSSSIHWVRQAPGKGLEWVASISSSYGYTYYADSVKGRFTISADTSKNTAYLQMNSLRAEDTAVYYCARYVVGGWWYHYGMDYWGQGTLVTVSS VL: DIQMTQSPSSLSASVGDRVTITCRASQSVSSAVAWYQQKPGKAPKLLIYSASSLYSGVPSRFSGSRSGTDFTLTISSLQPEDFATYYCQQSSYSLITFGQGTKVEIKR | 2.48 | 0.000782 | 315000 | no binding (tested: 5 ug/ml) | 4.9 | – | – | – |
| anti-αKlotho Fab clone 4829 (Fab, V domains shown, Fab (also as Fab-phage); FLAG tag on light chain; also called sb198) VH: EVQLVESGGGLVQPGGSLRLSCAASGFNISSYYIHWVRQAPGKGLEWVASIYSSYGYTSYADSVKGRFTISADTSKNTAYLQMNSLRAEDTAVYYCARYSWSPYWWWAYSGLDYWGQGTLVTVSS VL: DIQMTQSPSSLSASVGDRVTITCRASQSVSSAVAWYQQKPGKAPKLLIYSASSLYSGVPSRFSGSRSGTDFTLTISSLQPEDFATYYCQQGGGLITFGQGTKVEIKR | 0.907 | 0.000614 | 678000 | no binding (tested: 5 ug/ml) | 1.8 | – | – | – |
